The source of these data is paper PMC9949253.

This assay addresses BTN3A1 full intracellular domain (BFI) (human). Description: ITC; 300 μM BTN2A1 ID271 titrated into a mixture of 60 μM BTN3A1 BFI and 120 μM 4-M-HMBPP; nanoITC, independent fit (NanoAnalyze).

For “BTN2A1 intracellular domain (ID271) (domain or fragment)”, the KD with 4-M-HMBPP came to 190 µM, the N with 4-M-HMBPP stood at 0.08 and the dH with 4-M-HMBPP is -23.9 kcal/mol.
